Our source for the initial rate of polymerization of 2.5 μM pyrene-labelled rabbit actin with 50 μM RH1 CTD peptide, without aldolase (control without addition 35, bovine serum albumin 34) (fluorescence units min^-1), initial rate of polymerization of 2.5 μM pyrene-labelled rabbit actin with 50 μM MTRAP CTD peptide, without aldolase (control without addition 35, bovine serum albumin 34) (fluorescence units min^-1) and Kd values is publication PMC4251702.

Assay [1] deals with rabbit muscle G-actin, biotinylated (rabbit) (UniProt P68135).
For assay [2], the target named is P. falciparum F-actin, biotinylated (P. falciparum 3D7 (endogenous in merozoites)) (UniProt Q8I4X0). Put plainly: BLI. (In general: BLI is a label-free optical method that tracks binding on a fibre tip over time.)
Assay [3] deals with P. falciparum G-actin, biotinylated (P. falciparum 3D7 (endogenous in merozoites)) (UniProt Q8I4X0). The assay is described as follows: BLI.

In turn, “RH1 cytoplasmic tail domain peptide (residues 2942-2971)” came in with an initial rate of polymerization of 2.5 μM pyrene-labelled rabbit actin with 50 μM RH1 CTD peptide, without aldolase (control without addition 35, bovine serum albumin 34) (fluorescence units min^-1) in assay [1] of 69.

For the substance “PfMTRAP cytoplasmic tail domain peptide (residues 452-498)”, the initial rate of polymerization of 2.5 μM pyrene-labelled rabbit actin with 50 μM MTRAP CTD peptide, without aldolase (control without addition 35, bovine serum albumin 34) (fluorescence units min^-1) in assay [1] was determined as 66.

For orientation: Kd means a measure of binding affinity in units of concentration. A low value points to a tighter complex. As for “Plasmodium falciparum aldolase (from UniProt P14223 1-369) (enzyme)”, the Kd in assay [2] was determined as 370 nM; in assay [3] it was 470 nM.
